Source: patent publication US20170313746
“Also recorded” adds a separate entry of the source.

How the values were obtained:
Ac-DEVD-CHO = molecular target: T1, Ac-DEVD-CHO
T1 chain: DEVD

[1] = molecular target: T2, HILR-030 (cyclo-[Pro-Arg-Gly-Pro-Arg-Pro-Val-Trp-Trp-Gpa-Gpa-Trp-Trp-Gpa-Gpa-Trp-Trp])
T2 chain: PRGPRPVWWXXWWXXXW

B1: recombinant human caspase 3 enzyme (protein)
chain: SGISLDNSYKMDYPEMGLCIIINNKNFHKSTGMTSRSGTDVDAANLRETFRNLKYEVRNKNDLTREEIVELMRDVSKEDHSKRSSFVCVLLSHGEEGIIFGTNGPVDLKKITNFFRGDRCRSLTGKPKLFIIQACRGTELDCGIETDSGVDDDMACHKIPVEADFLYAYSTAPGYYSWRNSKDGSWFIQSLCAMLKQYADKLEFMHILTRVNRKVATEFESFSFDATFHAKKQIPCIVSMLTKELYFYH
caspase-3 activity (Apo-ONE Homogeneous Caspase-3/7 assay, cleavage of Z-DEVD-R110) (Ac-DEVD-CHO): inhibited the activity of caspase-3 in a dose-dependent manner, giving rise to IC50s within the expected range; also recorded: inhibited the caspase-3 activity in a dose-dependent fashion
caspase-3 activity (Apo-ONE Homogeneous Caspase-3/7 assay, cleavage of Z-DEVD-R110) [1]: inhibited the caspase-3 activity in a dose-dependent fashion
